According to patent US10227617B2, “Sequestration of carbon dioxide with hydrogen to useful products” (UNIVERSITY OF GEORGIA RESEARCH FOUNDATION, INC., priority 2012, dated 2019):

Key:
[1] = at 65 C; cited from earlier work
[2] = Acetoacetyl-CoA β-ketothiolase discontinuous DTNB assay; format: biochemical; settings: 70° C
[3] = substrate: CC(=O)CC(=O)SCCNC(=O)CCNC(=O)[C@H](O)C(C)(C)COP(=O)(O)OP(=O)(O)OC[C@H]1O[C@@H](n2cnc3c(N)ncnc32)[C@H](O)[C@@H]1OP(=O)(O)O; assay: purified protein, by the assay type; settings: other: Msed_0656, 70° C., pH 7.5; 70.0 °C
[4] = Scherf et al., 1993; cited from earlier work
[5] = Crotonyl-CoA hydratase assay, NAD+ reduction at 340 nm; format: biochemical; settings: C-CoA, hydratase reaction; 70° C
Description: (§1) Crotonyl-CoA hydratase/(S)-3-Hydroxybutyryl-CoA dehydrogenase (Msed_0399). The enzyme was purified first using a Q-sepharose HiLoad 16/10 anion exchange column (GE Healthcare). The protein was loaded onto the column with 20 mM Tris, pH 8.0, and eluted with 20 mM Tris, 1 M NaCl, pH 8.0 using a linear elution gradient. Fractions containing Msed_0399 were confirmed with SDS-PAGE, collected and dialyzed into buffer for size exclusion chromatography (50 mM potassium phosphate, 150 mM NaCl, pH 7.0). The partially-purified protein was further separated on a HiLoad 26/600 Superdex 200 PG column, and the elution fractions containing Msed_0399 were collected, concentrated, and dialyzed into reaction buffer (100 mM MOPS, pH 7.5), and then either stored at 4° C. for immediate use or mixed with glycerol to 20% and stored at −20° C. Enzyme activity was measured spectrophotometrically at 70° C. by following NAD^+ reduction at 340 nm (extinction coeffienct at 340 nm=[…]) (Berg et al., 2007. Science 318:1782-1786). The assay mixture contained 20 mM MOPS (pH 7.0), 5 mM MgCl2, 2 mM NAD^+, 0.5 mM crotonyl-CoA or (S)-3-hydroxybutyryl-CoA, and purified enzyme. The reaction mixture was preheated for 2 min at 70° C. and the reaction initiated by addition of substrate.

[6] = (S)-3-Hydroxybutyryl-CoA dehydrogenase assay, NAD+ reduction at 340 nm; format: biochemical; settings: 3HB-CoA, dehydrogenase reaction; 70° C
Description: as §1

[7] = substrate: C/C=C/C(=O)SCCNC(=O)CCNC(=O)[C@H](O)C(C)(C)COP(=O)(O)OP(=O)(O)OC[C@H]1O[C@@H](n2cnc3c(N)ncnc32)[C@H](O)[C@@H]1OP(=O)(O)O; assay: crotonyl-CoA hydratase reaction of Msed_0399, NAD+ reduction at 340 nm; format: biochemical, Metallosphaera sedula; settings: other: Msed_0399 (C-CoA), 70° C., pH 7.0
Text: (§2) The crotonyl-CoA hydratase/(S)-3-hydroxybutyrl-CoA dehydrogenase activity of a polypeptide may be determined by routine methods known in the art. An example of such a polypeptide includes an amino acid sequence encoded by coding sequence Msed_0399 of Genbank accession NC_009440 and disclosed at SEQ ID NO:16.
(§3) Heterologous expression of M. sedula genes in E. coli. Msed_0406, Msed_1321, Msed_0399, and Msed_0656 were amplified from genomic DNA using primers from IDT Technologies (Coralville, Iowa). Msed_0406 was cloned into pET46-Ek/LIC with an N-terminal His6 tag, as described in Example 1. Msed_1321 was cloned with an N-terminal His6 tag into a modified pETA vector, into which the anaerobic hya promoter from E. coli had been inserted to allow for anaerobically-regulated expression (Sun et al., 2010. PLoS One 5:e10526). Msed_0399 was cloned into pET21b without a His-tag, and Msed_0656 was cloned into pCDF-Ek/LIC with an N-terminal His6 tag. All four constructs were individually cloned into NovaBlue GigaSingles E. coli competent cells and selected by growth on LB-agar supplemented with antibiotic. Sequences were confirmed by Eton Biosciences, Inc. (Durham, N.C.). Next, the plasmids were transformed into E. coli Rosetta 2 (DE3) cells for protein expression. Rosetta strains containing pET46-0406, pET21b-0399, and pCDF-0656 were grown and expressed aerobically at 37° C. for 16 h in Studier's auto-inducing medium ZYM-5052 (Studier, 2005. Protein Expression and Purification 41:207-234). Rosetta cells containing pETA-1321 plasmid were grown in a 2 L Applikon bioreactor (37° C., 800 rpm, pH 6.7, 0.5 slpm air) in Studier's non-inducing medium ZYM-505 with 0.5 mM FeCl3. […]
(§4) Crotonyl-CoA hydratase/(S)-3-Hydroxybutyryl-CoA dehydrogenase (Msed_0399). […] Enzyme activity was measured spectrophotometrically at 70° C. by following NAD^+ reduction at 340 nm (extinction coeffienct at 340 nm=[…]) (Berg et al., 2007. Science 318:1782-1786). […]

[8] = substrate: C[C@H](O)CC(=O)SCCNC(=O)CCNC(=O)[C@H](O)C(C)(C)COP(=O)(O)OP(=O)(O)OC[C@H]1O[C@@H](n2cnc3c(N)ncnc32)[C@H](O)[C@@H]1OP(=O)(O)O; assay: (S)-3-hydroxybutyryl-CoA dehydrogenase reaction of Msed_0399, NAD+ reduction at 340 nm; format: biochemical, Metallosphaera sedula; settings: other: Msed_0399 (3HB-CoA), 70° C., pH 7.0
Text: as §2, §3, §4

[9] = 4-hydroxybutyryl-CoA dehydratase coupled spectrophotometric assay; format: biochemical; settings: 70° C
Description: (§5) 4-hydroxybutyryl-CoA dehydratase (Msed_1321). The enzyme was purified using a 5 ml Bio-Scale Mini Profinity IMAC cartridge (Bio-Rad). The soluble, heat-treated lysate was loaded onto the column with binding buffer (50 mM Tris, 300 mM NaCl, 3.5 mM DTT, 20 mM imidazole, pH 8.0) and the his-tagged enzyme removed with elution buffer (50 mM Tris, 300 mM NaCl, 3.5 mM DTT, 500 mM imidazole, pH 8.0). The fraction collector was positioned inside the anaerobic chamber, and fractions containing enzyme were collected, concentrated, and dialyzed into reaction buffer (100 mM potassium phosphate, pH 7.5, 1 mM DTT). The enzyme solution was either stored at room temperature inside the anaerobic chamber for immediate use or mixed with glycerol to 20% and stored at −20° C. in a sealed vacuum dessicator. Enzyme activity was measured aerobically in a coupled spectrophotometric assay at 70° C. The assay mixture contained 20 mM sodium phosphate, 5 mM MgCl2, 2 mM 4HB, 2 mM ATP, 1 mM CoA, 2 mM NAD^+, 1 mM DTT, 1 mg/ml purified Msed_0406, and 42 ng/ml Msed_0399. The reaction mixture was pre-heated for 5 min at 70° C. to allow accumulation of 4HB-CoA, and then initiated by addition of purified Msed_1321. For the oxygen-sensitivity assay, Msed_1321 was washed with 100 mM potassium phosphate, pH 7.5, to remove any DTT from the reaction buffer. […]

[10] = Oxygen-sensitivity assay of 4-hydroxybutyryl-CoA dehydratase; settings: exposed to air
Description: as §5

## O=C(O)O [carbonic acid]
[1]
  apparent pKa of the ionization to bicarbonate: about 6.3

B1: Metallosphaera sedula acetoacetyl-CoA β-ketothiolase Msed_0656, SEQ ID NO:17, recombinant (Metallosphaera sedula DSM 5348) (protein)
chain: MPDVYIVSAVRTPIGRFGGSLKSVKPQMLGAIAIKEALRRANTDPSRVELTIMGNVLRSGHGQDLARQAALLAGIPWEVDGYCVDMVCSSGMMGVTNAAQMIKSGDADVVVAGGMESMSQSMLAVNSEVRWGVKFLSGKSLNFIDTMLVDGLTDPFNLKLMGQEADMVARERDISRRELDEVAFESHRRAHQAWEKGLFKSEVIPVNLDEGKLERDEGIRPDTTMEKLSSLKPAFTENGYHTAGNSSQISDGAVAMVLMSEKAVKEFGVDPVAKILGYSWVGIESWRFTEAPLYSVRKLLTRLNMNITQFDYFENNEAFAVNNVLFHRYLGVPYDQLNVFGGAIALGHPIGASGARIMVTLLNVLSKMNATRGIASICHGVGGSTAIALELLRPL
[2]
  Vmax: 1400 µmol/min/mg
[3]
  Km: 180 µM
  Vmax: 1400 µmol/min/mg
  kcat: 1000 s⁻¹

B2: clostridal homolog: 4-hydroxybutyryl-CoA dehydratase from Clostridium aminobutyricum (protein, UniProt P55792 1-490, looked up)
4-hydroxybutyryl-CoA …: MLMTAEQYIESLRKLNTRVYMFGEKIENWVDHPMIRPSINCVAMTYELAQDPQYADLMTTKSNLIGKTINRFANLHQSTDDLRKKVKMQRLLGQKTASCFQRCVGMDAFNAVFSTTYEIDQKYGTNYHKNFTEYLKYIQENDLIVDGAMTDPKGDRGLAPSAQKDPDLFLRIVEKREDGIVVRGAKAHQTGSINSHEHIIMPTIAMTEADKDYAVSFACPSDADGLFMIYGRQSCDTRKMEEGADIDLGNKQFGGQEALVVFDNVFIPNDRIFLCQEYDFAGMMVERFAGYHRQSYGGCKVGVGDVVIGAAALAADYNGAQKASHVKDKLIEMTHLNETLYCCGIACSAEGYPTAAGNYQIDLLLANVCKQNITRFPYEIVRLAEDIAGGLMVTMPSEADFKSETVVGRDGETIGDFCNKFFAAAPTCTTEERMRVLRFLENICLGASAVGYRTESMHGAGSPQAQRIMIARQGNINAKKELAKAIAGIK
[4]
  time to irreversible inactivation when exposed to air: ~25 min

B3: Metallosphaera sedula crotonyl-CoA hydratase/(S)-3-hydroxybutyryl-CoA dehydrogenase Msed_0399, SEQ ID NO:16, recombinant (Metallosphaera sedula DSM 5348) (protein)
chain: MKVTVIGSGVMGHGIAELAAIAGNEVWMNDISTEILQQAMERIKWSLSKLRESGSLKEGVEQVLARIHPETDQAQALKGSDFVIEAVKEDLELKRTIFRNAEAHASPSAVLATNTSSLPISEIASVLKSPQRVVGMHFFNPPVLMPLVEIVRGKDTSDEVVKTTAEMAKSMNKETIVVKDVPGFFVNRVLLRIMEAGCYLVEKGIASIQEVDSSAIEELGFPMGVFLLADYTGLDIGYSVWKAVTARGFKAFPCSSTEKLVSQGKLGVKSGSGYYQYPSPGKFVRPTLPSTSKKLGRYLISPAVNEVSYLLREGIVGKDDAEKGCVLGLGLPKGILSYADEIGIDVVVNTLEEMRQTSGMDHYSPDPLLLSMVKEGKLGRKSGQGFHTYAHEEAKYSTIVVRVEPPLAWIVLNRPTRYNAINGDMIREINQALDSLEEREDVRVIAITGQGRVFSAGADVTEFGSLTPVKAMIASRKFHEVFMKIQFLTKPVIAVINGLALGGGMELALSADFRVASKTAEMGQPEINLGLIPGGGGTQRLSRLSGRKGLELVLTGRRVKAEEAYRLGIVEFLAEPEELESEVRKLANAIAEKSPLAVASAKLAYKLGEETHIWTGTSLEASLFGLLFSTKDFEEGVRAFLEKRKPNFRGE
[5]
  Vmax: 20 µmol/min/mg
[6]
  Vmax: 16 µmol/min/mg
[7]
  Km: 70 µM
  Vmax: 20 µmol/min/mg
  kcat: 19 s⁻¹
[8]
  Km: 60 µM
  Vmax: 16 µmol/min/mg
  kcat: 15 s⁻¹

B4: Msed_1321: M. sedula 4-hydroxybutyryl-CoA dehydratase, SEQ ID NO:15 (protein, listed as Metallosphaera sedula)
chain: MVVRTGEQYLQSISNRSKVEIYVMGREVKDVTKHPFLKPSVMSFKATFDAAWEEDTKELGRAWSPYLEEEINRFNHIHRSPDDLAAKVKLLRKLSHKTGACFQRCVGWDSLNTLHIVTTMMAKKGKTEVRDRFVEYLKYVQKNDLALAGAMTDAKGIRNLKPSQQPNKNAYLRITEVTKDGIYVSGAKANITGVAATEEMVVLPTRAMGPEDKDYAVAFAIPTDTEGVKIVVGRQLNDARRMEEGEIDGLPYFYNHEGLVIFDNVFVPMNRVFLAGEWEYTGTLVEIFSAYHRQGYGGCKAGLGDVIIGASADLAKQIGVDRASHVQDKLTEMIFLTETMYSAGIAASLNAVKMCDNCWWVNPMHANVTKHLVARFPSQIAQLSIDLAGGIVGTAPSEWDLKNPKLKEYISRYLQGAEDFTAEDRLRMVRLVENVSMGVAFQIESVHGAGSPAAQRIMFSRLYDLNFAQEVAKKLAGRKSEVKFTSKAEPWRESQSEAEAKEAGLKS
[9]
  Vmax: 2.2 µmol/min/mg
[10]
  duration of initial activation upon exposure to air: about 15 hours
